Measured values as given in FireProtDB (doi:10.1021/bi00150a028).

B1: Lysozyme C, P61626 (parent)
chain: MKALIVLGLVLLSVTVQGKVFERCELARTLKRLGMDGYRGISLANWMCLAKWESGYNTRATNYNAGDRSTDYGIFQINSRYWCNDGKTPGAVNACHLSCSALLQDNIADAVACAKRVVRDPQGIRAWVAWRNRCQNRDVRQYVQGCGV

Variants of: B1
Conditions: Homo sapiens, pH 3, Thermal, DSC, glycine-HCl 0.05 M, reversible: yes, structure 1LZ1, whole UniProt chain shown; for ddG of mutation (higher = less stable) / unfolding enthalpy (calorimetric) / unfolding free energy: 57 °C

Variant	ddG of mutation (higher = less stable) [kcal/mol]	unfolding enthalpy (calorimetric) [kcal/mol]	unfolding free energy [kcal/mol]	Tm [°C]	change of melting temperature, mutant - wild type (higher = more stable) [°C]
MKALIVLGLVLLSVTVQGKVFERCELARTLKRLGMDGYRGISLANWMCLAKWESGYNTRATNYNAGDRSTDYGIFQINSRYWCNDGKTPGAVNAAHLSCSALLQDNIADAVACAKRVVRDPQGIRAWVAWRNRCQNRDVRQYVQGCGV [C95A]	4.6	94.8	0	–	–
MKALIVLGLVLLSVTVQGKVFERCELARTLKRLGMDGYRGISLANWMCLAKWESGYNTRATNYNAGDRSTDYGIFQINSRYWCNDGKTPGAVNAAHLSCSALLQDNIADAVAAAKRVVRDPQGIRAWVAWRNRCQNRDVRQYVQGCGV [C95A C113A]	4.6	90.8	0	56.9	-14.5
